# Source: patent US10435681B2, “Compounds and methods for stabilizing thrombin activity” (Omrix Biopharmaceuticals Ltd., priority 2013, dated 2019)
# How the values were obtained:
# Type in all cases: biochemical
# thrombin [1] = molecular target: T1, thrombin (Homo sapiens, UniProt P00734); assay: Thrombin inhibition testing: clotting activity of 10 IU/ml thrombin towards fibrinogen in the presence of the additive; conditions: 10 IU/ml thrombin
# T1 construct: yields the active alpha thrombin molecule which is a 295 amino acid polypeptide (human) composed of a heavy and light chain
# Description: (§1) Thrombin activity was assessed by clotting time measurements using STart4 Coagulation Instrument (DIAGNOSTICA STAGO™, Asnieres sur Seine, France). The assay is a modification of the European Pharmacopoeia Assay procedure, 1997, 0903, p. 858. Briefly, a calibration curve was prepared by mixing thrombin standard with a fibrinogen solution of 0.1% fibrinogen content (Enzyme Research Laboratories, Ind., USA). Thrombin concentration in the different tested samples was then calculated from the calibration curve by their clotting time (the concentration was extrapolated from the calibration curve).
# For inhibition testing, the clotting activity of 10 IU/ml thrombin was measured in the presence or absence of peptides.
# The assay was carried out as described in Example 1.
# thrombin [2] = molecular target: T1, thrombin; assay: Thrombin stability testing: remaining clotting activity of 1000 IU/ml liquid thrombin after storage at 37° C.; conditions: 1000 IU/ml thrombin
# thrombin [3] = molecular target: T1, thrombin; assay: as above; conditions: 0.5 mM peptide, 1000 IU/ml thrombin; for stabilization of thrombin activity (in words): 37° C., 0, 3 and 7 days
# Description: Aqueous liquid thrombin, in its purified and concentrated form 1000 international units IU/ml may undergo autolysis at room temperature causing a significant loss of activity e.g. towards a heterologous substrate. E.g. thrombin activity towards a heterologous substrate is reduced when a liquid thrombin formulation is incubated at room temperature for prolonged periods of time (e.g. 72 to 144 hours), inter alia, due to autolytic degradation. The decrease of thrombin activity towards a heterologous substrate in aqueous liquid solution can be assessed by measuring thrombin activity after prolonged periods of time and under permissive temperature (e.g. 37° C.). In the following experiments, the effect of a peptide on the stability of thrombin was studied under different conditions.
# Aqueous liquid purified and concentrated thrombin (1000 IU/ml; equivalent to about 10 μM) was aliquoted and placed in a 37° C. incubator for 3 days (72 hours), 7 days (168 hours) and 14 days (336 hours). Prior to incubation, thrombin samples were spiked with indicated amounts of different tested peptides or with a control thrombin inhibitor: benzamidine or arginine *HCl (“arginine”). Specific peptides, their concentrations, and thrombin inhibitors used are indicated in each Example. Following the incubation period, the samples were frozen at −80° C. until testing the thrombin activity. Just before thrombin activity assay testing, all the samples were thawed and 100-fold diluted into a dilution buffer (0.4% tri-sodium citrate di-hydrate, 0.9% sodium chloride and 1% BSA, pH=7.5) to bring the thrombin concentration in the sample to that within the specifications of the assay (4-10 IU/ml) and to dilute the tested peptides in the sample to a negligible concentration.
# as §1
# For stability testing of 1000IU/ml thrombin following storage with or without peptides, testing was carried out as described above. Dilutions (1:100) were carried out before measuring the activity.
# All of these peptides (“mutant gamma loop peptides” identified in Example 3, random peptides, thrombin derived peptides, and “gamma loop binding peptides” mentioned above) were tested for their ability to stabilize thrombin activity at a concentration of 0.5 mM as described in Example 2.
sequence,measurement,setting,value
"GNLKETWTANVGKGQPS [SEQ ID NO:2, gamma loop peptide with flanking amino acids on N- and C-termini]",effect on thrombin activity (in words),thrombin [1]; 0.2 mM peptide,not significantly affected
same,remaining thrombin activity in presence of peptide,"thrombin [1]; 0.5 mM peptide, FIG. 2D",about 80%
same,stabilization of thrombin activity (in words),"thrombin [2]; 0.1 mM peptide, 144 hours at 37° C.",stabilization detected
same,stabilization of thrombin activity (in words),"thrombin [2]; 0.2 mM peptide, 72 hours at 37° C.",already evident
same,stabilization of thrombin activity (in words),thrombin [3],capable of stabilizing liquid aqueous thrombin
same,stabilization of thrombin activity (in words),thrombin [3]; listed as SEQ ID NO: 2,efficient stabilization of thrombin activity
same,thrombin stability (in words),"thrombin [3]; 72 and 144 hours at 37° C., FIG. 2C",an increase in thrombin stability was observed
